The results in this text go back to publication PMC12576452.

For this assay, the target named is HBV-S/preS1^16-42 antigen, untagged, produced in P. purpureum (Hepatitis B virus) (UniProt P03138). Put plainly: SDS-PAGE under native, non-reducing (-DTT) and reducing (+DTT) conditions with western blot; lysates of freeze-dried algal biomass; bands of monomers, dimers and oligomers detected with anti-preS1 antibodies; disulfide-linked.

By stoichiometry N is commonly meant a count of units in the complex or per binding partner. “HBV-S/preS1^16-42 antigen, untagged, produced in P. purpureum (from UniProt P03138 16-42)” yielded a stoichiometry N of 2.
